Patent publication US12441811B2, “Compositions and methods for treating serpin B13 disorders” (REGENTS OF THE UNIVERSITY OF MINNESOTA, priority 2019, dated 2025)
“Also recorded” adds a separate entry of the source.

Tests used:
pancreatic islets = details: cited from earlier work
catL [1] = assay: catL protease activity in cell extract from pancreatic tissue in vitro; type: biochemical; details: mAb added to cell extract from pancreatic tissue in vitro
Ngn3+ cells = assay: Genetic lineage tracing of Ngn3+ cells; type: in vivo, mouse
Protocol: FIGS. 18A-18C. Genetic tracing of Ngn3^+ cells in the pancreas of healthy and diabetic adult mice treated with anti-serpinB13 mAb. (A) The protocol of mice treatment with streptozotocin (STZ), tamoxifen (TAM), and anti-serpinB13 mAb (or control Ab). Eight-week old Ngn3Cre^ERTR26^YFP mice were induced into diabetes with STZ (150 mg/kg) and genetically labelled with YFP to mark Ngn3^+ cells, using TAM one day after injection of STZ, and an additional three times every other day thereafter. The antibodies were injected every day for 7 days at 100 μg/injection during the first week after STZ treatment. (B) Quantitative analysis by IF microscopy of YFP^+ cells expressing insulin at two weeks following induction of diabetes with STZ. […] (C) Representative microscopic IF images of YFP^+insulin^+ cells depicted in (B). Data are presented as the mean±SEM. Ordinary one-way ANOVA with Sidak test. Scale bars, 10 μm. NS, not significant. αB13, anti-serpinB13 mouse mAb.
Linage tracing. In the developmental studies, the Rosa26^EYFP females were initially set up for overnight breeding with NgnCre^ERT males and the following morning examined for the presence of a vaginal plug to indicate embryonic day E0.5. On embryonic day E10.5, E11.5, E12.5 and 13.5, anti-serpinB13 mAb (or control Ab) was injected i.p. at a dose of 50 μg per animal per day (total dose of 200 μg). […]

[2] = test system: pancreatic islets and β-cells; assay: Follow-up of healthy offspring with gestational exposure to anti-serpinB13 mAb; type: in vivo, mouse; details: for β-cell mass per animal (islet mass): offspring
Protocol: The control mouse mAb (clone TIB92) was from ATCC (Manassas, VA, USA). The recombinant human control Ab (cat. No 403502) was from BioLegend (San Diego, CA). In most of the experiments, anti-serpinB13 mAb (clone B29) or control mouse mAb was injected i.p. into pregnant female mice at 50 μg for four consecutive days, starting at gestational day E10.5 (total dose of 200 μg). In the lineage tracing experiments in adult mice, B29 was injected i.p. for 7 days at 100 μg/injection during the first week after STZ treatment (total dose of 700 μg).
Preparation of the islets and single islet-cell suspensions. The adult pancreases were subjected to digestion with collagenase P and passed through the 100-μm strainers to separate the islets from debris. The blindly digested pancreatic samples were manually counted for the number of pancreatic islets under a dissecting microscope with a warm halogen light from below. The islets were defined as any visible, distinct cluster of cells with smooth edges and light- to dark-brown glowing color and diameter greater than 100 μm. The hand-picked islets were then dispersed with CellStripper (cat. no. 25-056-CI; Corning, Corning, NY). The cells were fixed and permeabilized, using the Foxp3/Transcription Factor Staining Buffer Set to permit intracellular staining.
(§1) Calculation of the islet mass. In embryos, the β-cell mass was expressed as the percentage of the area of all pancreatic sections combined, that positively stained with anti-insulin antibody. To calculate β-cell mass in adult mice, the percentage insulin-positive area was multiplied by the pancreas weight expressed in milligrams.
Estimating the number of islets and islet cells. The islets were manually counted under a dissecting microscope. To estimate the number of α and β cells, the islet cells were dispersed, intracellularly stained with antibodies to […], respectively, and their counts measured by FACS.

catL [3] = assay: catL activity in vivo with activity-based probe ProSense 680; parameters: species or system mouse
Protocol: CatL has been implicated as a serpinB13 protease target. To examine the consequences of inhibiting serpinB13 using a mAb (clone B29), the catalytic activity of catL was measured. […] To measure catL activity in vivo, the activity-based probe, ProSense 680, was used. […] This increase was limited to the pancreas in wild-type Balb/c mice and was not observed in the liver, where serpinB13 is not expressed, or in the pancreas of catL-deficient Balb/c mice.

[4] = test system: streptozotocin-induced diabetes; assay: STZ-induced diabetes in adult offspring with gestational exposure to anti-serpinB13 mAb; type: in vivo, mouse; details: for preserved residual β-cell mass: 4 weeks after STZ 150 mg/kg in adulthood; for preserved residual β-cell mass / diabetes / severity of the disease: prenatal exposure; for diabetes / severity of the disease: STZ injected in adulthood, vs control antibody
Excerpt: as §1
Diabetes induction and monitoring. C57BL/6 male mice, which are susceptible to STZ-induced diabetes, were subjected to a 6-hour period of bedding removal and fasting with unlimited access to drinking water. At the end of fasting, STZ was dissolved in a freshly prepared buffer (50 mM Sodium Citrate, pH 4.5) and immediately injected i.p. at 150 mg/kg. The glucose levels in tail blood were measured at random every 7 days for 4 weeks. Alternatively, to perform the glucose tolerance test, STZ-treated C57BL/6J male mice were first fasted for 6 hours with unlimited access to drinking water, and then injected i.p. with a 10% D-(+)-glucose solution (10 μL/g body weight). A glucometer (One-Touch Ultra) was used to monitor glucose levels using tail blood collected before glucose injection, and after injection at 30-min intervals for 2 hours. For glucometer glucose readings “above 600 mg/dL”, the data were extrapolated to the value of 700 mg/dL for algebraic statistical purposes only.

[5] = 8-week old offspring, prenatal exposure

B1: B29: mouse monoclonal antibody to serpin B13, clone B29; heavy chain SEQ ID NO:14, kappa light chain SEQ ID NO:16 (antibody, V domains shown)
VH: QIQLVQSGPELKKPGETVKISCKASGYTFTTYGMSWVKQAPGKGLKWMGWINTYSGMPTYADDFKGRFAFSLETSATTAYLQINNLKNEDTATYFCARPLLGLDYWGQGTTLTVSS
VL: DIVMTQTPLSLSVTIGQPASISCKSSQSLLHSDGKTFLNWFLQRPGQSPKLLIYLVSKLESGIPDRFSGSGSGTDFTLKISRVEVEDLGVYYCLQHTHFPLTFGAGTKLEIK
Pancreatic islets; coadministration with a suboptimal dose of anti-CD3 mAb
  recovery from diabetes: accelerated
Pancreatic islets; injection
  Reg gene expression: enhanced
  beta cell mass: increase
  beta cell proliferation: enhanced
  generation of pancreatic islets: ~80 pancreatic islets per animal
Pancreatic islets; mice, mAb alone
  islet inflammation: decreased
catL [1]
  protease activity of catL: dose-dependently enhanced
Ngn3+ cells; adult mice with STZ-induced pancreatic damage, 100 μg/injection for 7 days, listed as anti-serpinB13 mAb
  transition from Ngn3 to insulin expression (YFP+insulin+ cells): also observed; also recorded: increase
Ngn3+ cells; injection during gestation, YFP+insulin+ cells in embryos
  conversion of Ngn3+ cells to insulin-positive status: enhanced conversion
[2]; [5]
  number of pancreatic islets: significant increase
  total β-cell number: significant increase
  α-cell population: significantly increased
[2]; at birth and in adulthood, vs control group
  total pancreas and body weight: remained the same
[2]; prenatal exposure, listed as anti-serpinB13 antibody
  β-cell mass per animal (islet mass): increased
[2]; prenatal exposure, listed as anti-serpinB13 mAb
  β-cell mass per animal (islet mass): significant increase
[2]; prenatal exposure, listed as mAb
  β-cell mass per animal (islet mass): significant expansion
catL [3]; catL-deficient Balb/c mice
  increase in catL activity in the pancreas of catL-deficient mice: not observed
catL [3]; liver, where serpinB13 is not expressed
  increase in catL activity in the liver: not observed
catL [3]; summary statement, setting not specified
  catL activity: augmented
catL [3]; wild-type Balb/c mice, after injection of mAb, ProSense 680
  catL activity in the intact pancreas: significant increase
[4]; 1-4 weeks after STZ
  loss of body weight: prevented
[4]; 4 weeks after STZ
  serum creatinine as a measure of renal function: improved
[4]; listed as anti-serpinB13 mAb
  preserved residual β-cell mass: over two-fold greater
  diabetes / severity of the disease: either completely protected against diabetes (FIG. 24A-24B), or ameliorated the severity of the disease
[4]; listed as serpinB13 mAb
  preserved residual β-cell mass: higher
  diabetes / severity of the disease: reduced severity of disease
[4]
  diabetes / severity of the disease: helped to prevent severe diabetes
[4]; listed as anti-serpinB13 antibody
  diabetes / severity of the disease: improved outcomes
[4]; listed as mAb
  diabetes / severity of the disease: improved resistance
[4]; ipGTT at 2 weeks, random glucose 1-4 weeks after STZ
  blood glucose control: improved
